Test results reported in patent US20150157741A1 (published 2015).
Ends that are not written are not given here.

Biological target: T1, Recombinant Human ErbB2/Fc Chimera (produced by R&D Systems) (human, UniProt P04626 23-652)
T1 construct: Bought reagent; Immobilised by amine coupling on a GLM chip, about 3,000 RU; also called HER2; Fc part of the bought chimera not given
Test: SPR (ProteOn XPR36), ErbB2/Fc amine-coupled on GLM chip, conjugate injected, 1:1 Langmuir fit
Protocol: The bonding property of the PEG including the capture molecule to HER2 serving as a target molecule was evaluated by a surface plasmon resonance method (SPR). In SPR, the measurement was performed using Proteon (registered trademark) XPR36 (produced by Bio-Rad Laboratories). Recombinant Human ErbB2/Fc Chimera (produced by R&D Systems) was dissolved into an acetate buffer (pH 5.0), and was immobilized by amine coupling to a carboxyl group on the GLM sensor chip surface. The amount of immobilization was about 3,000 RU (Resonance Unit). Subsequently, the PEG including the capture molecule was diluted to various concentrations with a phosphate buffer (pH 7.4) containing 0.005% of Tween20 and was injected into a flow cell at a flow rate of 50 microliters/min. As for the measurement times, an injection time (bonding) was 120 seconds and an elapsed time after stopping of injection (dissociation) was 120 seconds. In a bonding kinetic analysis experiment, sensor grams were analyzed using 1:1 Langmuir fitting model. The bonding property to HER2 was ensured with respect to every sample. In particular, strong bonding property was ensured with respect to scFv-PEG40, Af-PEG20, and Af-PEG40.

B1: pe-PEG20 (PEG ME-200MA modified with ICG and the HER2-binding peptide of Sequence No. 3) (peptide)
peptide: MARSGLGGKGSC(PEG ME‑200MA)
modifications: also: ICG-Sulfo-OSu conjugated, site not given here
notes: Conjugate with PEG 20k and ICG
**Q.** B1 was tested. Which Kd did it give?
**A.** The Kd was 2.6 µM.

B2: pe-PEG40 (PEG ME-400MA modified with ICG and the HER2-binding peptide of Sequence No. 3) (peptide)
peptide: MARSGLGGKGSC(PEG ME‑400MA)
modifications: also: ICG-Sulfo-OSu conjugated, site not given here
notes: Conjugate with PEG 40k and ICG
**Q.** With B2 as the binder, how does the Kd read?
**A.** Its Kd is 3.1 µM.
